Results as given in patent US20080207668A1, “PHARMACEUTICAL COMPOSITIONS OF HYD[…] PREVENTION OF OVERDOSE OR ABUSE” (New River Pharmaceuticals Inc., priority 2006, published 2008).
Where a name gives a salt, the structure may show the parent alone. Residues, ends and D or L forms follow the SMILES beside them. *: point of attachment. X5 = CC(=O)Oc1ccc2c3c1O[C@H]1C(O*)=CC[C@H]4[C@@H](C2)N(C)CC[C@]314; X2 = CN1CC[C@]23c4c5ccc(O)c4O[C@H]2C(O*)=CC[C@H]3[C@H]1C5

Assays:
[1] = Intranasal bioavailability of hydromorphone conjugates (plasma hydromorphone after intranasal dosing); assay type: in vivo, male Sprague-Dawley rats; details: rat, relative to hydromorphone control
Experimental: Oral, and intranasal bioavailability studies of hydromorphone and hydromorphone conjugates were conducted in male Sprague-Dawley rats. Doses of hydromorphone hydrochloride and hydromorphone conjugates containing equivalent amounts of hydromorphone were administered in deionized water. Oral administration was in 0.5 ml by gavage needle. Intranasal doses were administered by placing 20 microliters into the nasal flares of rats anesthetized with isoflurane. Plasma was collected by retroorbital sinus puncture under isoflurane anesthesia. hydromorphone were determined by LC/MS/MS.
Male Sprague-Dawley rats were provided water ad libitum and doses were administered by placing 0.02 ml of water containing hydromorphone conjugates or hydromorphone […] into the nasal flares. All doses contained equivalent amounts of hydromorphone base. Plasma hydromorphone concentrations were measured by ELISA (hydromorphone, 102919, Neogen, Corporation, Lexington, Ky.) and/or LC/MS. The assay is specific for hydromorphone. These examples illustrate that hydromorphone conjugates decrease the peak level (Cmax) and total absorption (AUC) of hydromorphone as compared to those produced by equimolar (hydromorphone base) doses of hydromorphone HCl when given by the intranasal route of administration.
The following Tables include Hydromorphone amino acid and peptide HCl salt conjugates that were synthesized and tested. Both oral and intranasal bioavailabilities were measured. The bold values are the “corrected values”, that were calculated based on the bioavailability of the control (HM).

[2] = Oral bioavailability of hydromorphone conjugates (plasma hydromorphone after oral gavage); details: rat, relative to hydromorphone control

| Compound | IN AUC % (corrected value based on bioavailability of control HM) [1] [%] | IN Cmax % (corrected value based on control HM) [1] [%] | Oral AUC % (corrected value based on bioavailability of control HM) [2] [%] | Oral Cmax % (corrected value based on control HM) [2] [%] |
| --- | --- | --- | --- | --- |
| CN1CC[C@]23c4c5ccc(O)c4O[C@H]2C(OC(=O)[C@H](Cc2ccccc2)NC(=O)[C@H](Cc2ccccc2)NC(=O)[C@H](Cc2ccccc2)NC(=O)[C@H](CCC(=O)O)NC(=O)[C@@H](N)CCC(=O)O)=CC[C@H]3[C@H]1C5 [EEFFF-HM, Glu2-Phe3-Hydromorphone.Dihydrochloride] (H-EEFFF-X2) | 52 | 57 | 79 | 78 |
| CC[C@H](C)[C@H](NC(=O)[C@H](CCC(=O)O)NC(=O)[C@@H](N)CCC(=O)O)C(=O)OC1=CC[C@H]2[C@H]3Cc4ccc(O)c5c4[C@@]2(CCN3C)[C@H]1O5 [EEI-HM] | 59 | 88 | 56 | 73 |
| CC(C)C[C@H](NC(=O)[C@H](CCC(=O)O)NC(=O)[C@@H](N)CCC(=O)O)C(=O)OC1=CC[C@H]2[C@H]3Cc4ccc(O)c5c4[C@@]2(CCN3C)[C@H]1O5 [EEL-HM] | 84 | 98 | 27 | 49 |
| CC(C)[C@H](NC(=O)[C@H](CCC(=O)O)NC(=O)[C@@H](N)CCC(=O)O)C(=O)OC1=CC[C@H]2[C@H]3Cc4ccc(O)c5c4[C@@]2(CCN3C)[C@H]1O5 [EEV-HM] | 31 | 70 | 21 | 50 |
| CC[C@H](C)[C@H](NC(=O)[C@H](Cc1ccccc1)NC(=O)[C@@H](N)Cc1ccccc1)C(=O)OC1=CC[C@H]2[C@H]3Cc4ccc(O)c5c4[C@@]2(CCN3C)[C@H]1O5 [FFI-HM] | 79 | 92 | 18 | 47 |
| CC(C)C[C@H](NC(=O)[C@H](Cc1ccccc1)NC(=O)[C@@H](N)Cc1ccccc1)C(=O)OC1=CC[C@H]2[C@H]3Cc4ccc(O)c5c4[C@@]2(CCN3C)[C@H]1O5 [FFL-HM] | 92 | 96 | 11 | 24 |
| CC(C)[C@H](NC(=O)[C@H](Cc1ccccc1)NC(=O)[C@@H](N)Cc1ccccc1)C(=O)OC1=CC[C@H]2[C@H]3Cc4ccc(O)c5c4[C@@]2(CCN3C)[C@H]1O5 [FFV-HM] | 98 | 103 | 8 | 36 |
| CC[C@H](C)[C@H](NC(=O)CNC(=O)CN)C(=O)OC1=CC[C@H]2[C@H]3Cc4ccc(O)c5c4[C@@]2(CCN3C)[C@H]1O5 [GGI-HM] | 24 | 66 | 17 | 32 |
| CC(C)C[C@H](NC(=O)CNC(=O)CN)C(=O)OC1=CC[C@H]2[C@H]3Cc4ccc(O)c5c4[C@@]2(CCN3C)[C@H]1O5 [GGL-HM] | 52 | 85 | 22 | 43 |
| CC(C)[C@H](NC(=O)CNC(=O)CN)C(=O)OC1=CC[C@H]2[C@H]3Cc4ccc(O)c5c4[C@@]2(CCN3C)[C@H]1O5 [GGV-HM] | 51 | 73 | 53 | 63 |
| CC[C@H](C)[C@H](NC(=O)[C@H](CCCCN)NC(=O)[C@@H](N)CCCCN)C(=O)OC1=CC[C@H]2[C@H]3Cc4ccc(O)c5c4[C@@]2(CCN3C)[C@H]1O5 [KKI-HM] | 68 | 85 | 24 | 56 |
| CC(C)C[C@H](NC(=O)[C@H](CCCCN)NC(=O)[C@@H](N)CCCCN)C(=O)OC1=CC[C@H]2[C@H]3Cc4ccc(O)c5c4[C@@]2(CCN3C)[C@H]1O5 [KKL-HM] | 87 | 96 | 24 | 50 |
| CC(C)[C@H](NC(=O)[C@H](CCCCN)NC(=O)[C@@H](N)CCCCN)C(=O)OC1=CC[C@H]2[C@H]3Cc4ccc(O)c5c4[C@@]2(CCN3C)[C@H]1O5 [KKV-HM] | 75 | 89 | 43 | 60 |
| CC[C@H](C)[C@H](NC(=O)[C@@H]1CCCN1C(=O)[C@@H]1CCCN1)C(=O)OC1=CC[C@H]2[C@H]3Cc4ccc(O)c5c4[C@@]2(CCN3C)[C@H]1O5 [PPI-HM] | 77 | 95 | 21 | 60 |
| CC(C)C[C@H](NC(=O)[C@@H]1CCCN1C(=O)[C@@H]1CCCN1)C(=O)OC1=CC[C@H]2[C@H]3Cc4ccc(O)c5c4[C@@]2(CCN3C)[C@H]1O5 [PPL-HM] | 53 | 70 | 22 | 45 |
| CC(C)[C@H](NC(=O)[C@@H]1CCCN1C(=O)[C@@H]1CCCN1)C(=O)OC1=CC[C@H]2[C@H]3Cc4ccc(O)c5c4[C@@]2(CCN3C)[C@H]1O5 [PPV-HM] | 71 | 101 | 24 | 55 |
| CC[C@H](C)[C@H](NC(=O)[C@H](Cc1ccccc1)NC(=O)[C@H](Cc1ccccc1)NC(=O)[C@H](Cc1ccc(O)cc1)NC(=O)[C@@H](N)Cc1ccc(O)cc1)C(=O)OC1=CC[C@H]2[C@H]3Cc4ccc(OC(C)=O)c5c4[C@@]2(CCN3C)[C@H]1O5 [YYFFI-HM-OAc] (H-YYFFI-X5) | 59 | 72 | 29 | 40 |
| CC[C@H](C)[C@H](NC(=O)[C@H](Cc1ccccc1)NC(=O)[C@H](Cc1ccccc1)NC(=O)[C@H](Cc1ccc(O)cc1)NC(=O)[C@@H](N)Cc1ccc(O)cc1)C(=O)OC1=CC[C@H]2[C@H]3Cc4ccc(O)c5c4[C@@]2(CCN3C)[C@H]1O5 [YYFFI-HM] (H-YYFFI-X2) | 4 | 7 | 40 | 52 |
| CC[C@H](C)[C@H](NC(=O)[C@H](Cc1ccc(O)cc1)NC(=O)[C@@H](N)Cc1ccc(O)cc1)C(=O)OC1=CC[C@H]2[C@H]3Cc4ccc(O)c5c4[C@@]2(CCN3C)[C@H]1O5 [YYI-HM] | 88 | 86 | 32 | 66 |
| CC(C)C[C@H](NC(=O)[C@H](Cc1ccc(O)cc1)NC(=O)[C@@H](N)Cc1ccc(O)cc1)C(=O)OC1=CC[C@H]2[C@H]3Cc4ccc(O)c5c4[C@@]2(CCN3C)[C@H]1O5 [YYL-HM] | 74 | 75 | 12 | 30 |
| CC(C)[C@H](NC(=O)[C@H](Cc1ccc(O)cc1)NC(=O)[C@@H](N)Cc1ccc(O)cc1)C(=O)OC1=CC[C@H]2[C@H]3Cc4ccc(O)c5c4[C@@]2(CCN3C)[C@H]1O5 [YYV-HM] | 73 | 73 | 30 | 53 |
